T1: GST-human NOGO-A56 (human, UniProt Q9NQC3 586-785)
T1 construct: GST-tagged fusion expressed in E. coli BL21 from pGEX-6P1; also called hNOGO; human NOGO 5+6 GST; not shown: Glutathione S-transferase tag encoded by vector pGEX-6P1 (N-terminal, with vector linker)
T1 sequence: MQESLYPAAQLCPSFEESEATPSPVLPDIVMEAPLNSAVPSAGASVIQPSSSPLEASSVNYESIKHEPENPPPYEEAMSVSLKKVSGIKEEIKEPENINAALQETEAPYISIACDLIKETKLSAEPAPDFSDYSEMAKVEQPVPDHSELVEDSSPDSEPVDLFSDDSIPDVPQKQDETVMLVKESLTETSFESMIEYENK


Tests used:
GST-human NOGO-A56 [1] = molecular target: T1, GST-human NOGO-A56; experiment: SPR (Biacore), GST-human NOGO-A56 immobilised, purified antibody as analyte; single experiment
GST-human NOGO-A56 [2] = molecular target: T1, GST-human NOGO-A56; experiment: as above; remark: listed apart in the source
GST-human NOGO-A56 [3] = molecular target: T1, GST-human NOGO-A56; experiment: as above; remark: listed apart in the source
GST-human NOGO-A56 [4] = molecular target: T1, GST-human NOGO-A56; experiment: SPR (Biacore), GST-human NOGO-A56 immobilised, purified antibody as analyte; mean (SD) of 12 runs
GST-human NOGO-A56 [5] = molecular target: T1, GST-human NOGO-A56; experiment: SPR off-rate ranking, supernatant from small-scale transient transfection over immobilised GST-human NOGO-A56; single experiment
GST-human NOGO-A56 [6] = molecular target: T1, GST-human NOGO-A56; experiment: SPR (Biacore T100), reverse format: antibody captured on Protein A, human NOGO 5+6 GST as analyte, 1:1 model; mean (SD) of 5 or 6 runs
GST-human NOGO-A56 [7] = molecular target: T1, GST-human NOGO-A56; experiment: SPR (Biacore), GST-human NOGO-A56 immobilised, purified antibody as analyte; single experiment (value said to be not typical)

Binder	Kd (GST-human NOGO-A56 [1]) [nM]	koff (GST-human NOGO-A56 [1]) [s⁻¹]	kon (GST-human NOGO-A56 [1]) [M⁻¹ s⁻¹]	Kd (GST-human NOGO-A56 [2]) [nM]	koff (GST-human NOGO-A56 [2]) [s⁻¹]	kon (GST-human NOGO-A56 [2]) [M⁻¹ s⁻¹]	Kd (GST-human NOGO-A56 [3]) [nM]	koff (GST-human NOGO-A56 [3]) [s⁻¹]	kon (GST-human NOGO-A56 [3]) [M⁻¹ s⁻¹]	Kd (GST-human NOGO-A56 [4]) [nM]	koff (GST-human NOGO-A56 [4]) [s⁻¹]	kon (GST-human NOGO-A56 [4]) [M⁻¹ s⁻¹]	koff (GST-human NOGO-A56 [5]) [s⁻¹]	Kd (GST-human NOGO-A56 [6]) [nM]	koff (GST-human NOGO-A56 [6]) [s⁻¹]	kon (GST-human NOGO-A56 [6]) [M⁻¹ s⁻¹]	Kd (GST-human NOGO-A56 [7]) [nM]	koff (GST-human NOGO-A56 [7]) [s⁻¹]	kon (GST-human NOGO-A56 [7]) [M⁻¹ s⁻¹]
HcLc (antibody, human IgG1, kappa, V domains shown, also called chimera of 2A10; 2A10 chimeric antibody) VH: QVQLQQPGTELVKPGASVKLSCKASGYTFTSYWMHWVKQRPGQGLEWIGNINPSNGGTNYNEKFKSKATLTVDKSSSTAYMQLSSLTSEDSAVYYCELGQGYWGQGTLVTVSS VL: DIVITQDELSNPVTSGESVSISCRSSKSLLYKDGKTYLNWFLQRPGQSPQLLIYLMSTRASGVSDRFSGSGSGTDFTLEISRVKAEDVGVYYCQQLVEYPLTFGAGTKLELKR	1.7	0.0044	2.6e+06	1.42	0.0035	2.46e+06	1.59	0.00369	2.32e+06	1.9	0.00754	3.92e+06	0.00392	0.41	0.000569	1.38e+06	–	–	–
H16L16 (antibody, human IgG1, kappa) heavy: not shown light: DIVMTQSPLSNPVTLGQPVSISCRSSKSLLYKDGKTYLNWFLQRPGQSPQLLIYLMSTRASGVPDRFSGGGSGTDFTLKISRVEAEDVGVYYCQQLVEYPLTFGQGTKLEIKRTVAAPSVFIFPPSDEQLKSGTASVVCLLNNFYPREAKVQWKVDNALQSGNSQESVTEQDSKDSTYSLSSTLTLSKADYEKHKVYACEVTHQGLSSPVTKSFNRGEC	–	–	–	–	–	–	–	–	–	–	–	–	0.00577	–	–	–	3.4	0.004	1.2e+06
H20L16 (antibody, human IgG1, kappa, V domains shown, human gamma1 mutated constant region, human kappa; also called H20L16 FL) VH: QVQLVQSGAEVKKPGASVKVSCKASGYTFTSYWMHWVRQAPGQGLEWIGNINPSNGGTNYNEKFKSKATMTRDTSTSTAYMELSSLRSEDTAVYYCELGQGYWGQGTLVTVSS VL: DIVMTQSPLSNPVTLGQPVSISCRSSKSLLYKDGKTYLNWFLQRPGQSPQLLIYLMSTRASGVPDRFSGGGSGTDFTLKISRVEAEDVGVYYCQQLVEYPLTFGQGTKLEIKR	1.7	0.0073	4.4e+06	1.61	0.00847	5.24e+06	–	–	–	1.86	0.0102	5.43e+06	0.00718	0.31	0.000313	1.01e+06	–	–	–
